From the supplement of paper PMC9170038

Test system: MS2 coat protein
Experiment: apparent KD of MS2 coat protein; designed switch direction (-1 OFF switch, 1 ON switch): 1; higher = weaker reporter binding
How it was run: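 RNA switches sharing common flanks were transcribed by stalled E. coli RNA polymerase on Illumina chips. A doubling series of SNAP-549-labelled MS2 coat protein, from 0.7 or 1.5 nM to 3 µM, was applied in Tris-HCl pH 7.5 buffer with KCl, MgCl2, BSA, DTT, tRNA and Tween-20. Each step lasted 0.8–1.5 h at the bottom of the series and 10–20 min at the top. Normalised cluster fluorescence was curve-fitted, giving apparent KD as the per-design median over clusters.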

[1] = input ligand: microRNA oligo, concentration not stated
[2] = Eterna round: R95, input ligand: FMN 200 uM
[3] = Eterna round: R95, input ligand: microRNA oligo, concentration not stated
[4] = Eterna round: R95, input ligand: none

| Sequence | apparent KD of MS2 coat protein (input ligand: FMN 200 uM) [nM] | apparent KD of MS2 coat protein [1] [nM] | apparent KD of MS2 coat protein (input ligand: none) [nM] | apparent KD of MS2 coat protein [2] [nM] | apparent KD of MS2 coat protein [3] [nM] | apparent KD of MS2 coat protein [4] [nM] |
| --- | --- | --- | --- | --- | --- | --- |
| AUUUUUAGUGCAGGAUAUGAUUAACAUGAGGAUCACCCAUGUGGUGUUGUGAGUAAGGAGAGUGAUCAGAAGGGCAUUUUUUUU [JMF's solution 92] (Eterna round: R96, puzzle: Same State NG 2) | 1020 | 452 | 456 | – | – | – |
| AUUUAAUUUACUCAGGAUAUGCAUAGAUAAACAUGAGGAUCACCCAUGUAAUUAUUUUUUAAUAAGUAGAAGGGAGAUUUUUAUU [splinter_arm[switch]] (puzzle: Same State 2) | – | – | – | 54.9 | 65.4 | 147 |
| AGAUGUUAAUCAGGAUAUGGGCACAUGAGGAUCACCCAUGUAAAGUAGAUACUAUGUGGUCAAGUCUAGAAGGGAUGGCUAACA [SameState NG2 #80] (Eterna round: R96, puzzle: Same State NG 2) | 433 | 282 | 279 | – | – | – |
| AAAGAAAACAUAGGAUAUGUAACAUGAGGAUCACCCAUGUAUACCUCGUAAGAGAUGAUGGAUGGACAGAAGGAUGGUCUCAGG [Default title] (Eterna round: R96, puzzle: Same State NG 2) | 134 | 73.7 | 80.6 | – | – | – |
| GAGUAGUUGAUAGGAUAUUGAUUGUUAUAGGAUCAAGAAGGAUCUAACAUGAGGAUCACCCAUGUAGGACUAUUCCUGUGUAUC [Parity 84 - Jieux - Same State NG 1] (Eterna round: R96, puzzle: Same State NG 1) | – | 16.9 | – | – | – | – |
| GCGAGCGUACUUGCUACAUGAGGAUCACCCAUGUCUAUUGGACAGGAUAUGGUACCGUUUCGGUACCAGAAGGGUUCAUCAUGU [JL SSNG3 3.72] (Eterna round: R96, puzzle: Same State NG 3) | 400 | 46.2 | 34.6 | – | – | – |
| GUGGUUCUCGUAGGAUAUGUAGGAUAUCCCUACAUGAGGAUCACCCAUGUUCGCAUGGGAGAAGGACAGAAGGACGAUCGCUAA [pwkr ssNG2 2FMN + 1F5.16] (Eterna round: R96, puzzle: Same State NG 2) | 20.9 | 11.1 | 53.5 | – | – | – |
| ACUUGCUUUUUGCUCGUAUAUUGUCCAUUACAUGAGGAUCACCCAUGUGUGUAUUGUGUAUUGUUUUUGAUACGUGC [JR_SHM208A_Sub071] (puzzle: Sensor for hsa-mir-208a) | – | – | – | 243 | 24.4 | 302 |
| GAGUGGAGGAAAGGAUAUACAAUGAUAAUCACAGUAGAAGGUUCUAACAUGAGGAUCACCCAUGUAGGACUAUACCUGAGAGAA [Parity 47 - Jieux - Same State NG 1] (Eterna round: R96, puzzle: Same State NG 1) | 9.26 | 10.8 | 15.5 | – | – | – |
| AGCUUACAUGAGGAUCACCCAUGUAGGAAGUACAUAGGAUAUCACCAAAUGGUCGACAUGUGAGAAGGGUGGAAGU [Usarle] (puzzle: Same State 1) | – | – | – | 16.2 | 19.4 | 13.5 |
| GGUAGGUUACUACCAAACAUGAGGAUCACCCAUGUAGGUGGGAAGGAUAUGGUACCUUUUAGGUACCAGAAGGUCCAUACAAUU [NGss mod of JL's mod of Fisker] (Eterna round: R96, puzzle: Same State NG 3) | 318 | 154 | 203 | – | – | – |
| AAAGGAUGAUGUUACAUGAGGAUCACCCAUGUAGUGAUAACUAAGGAUAUCUGUUAAAUUAAUUAAGAGAAGGUAGGAUCAUUA [AK SSNG3-V2-8.1] (Eterna round: R96, puzzle: Same State NG 3) | 43.5 | 45.8 | 53.2 | – | – | – |
| CGGCGCUGUCGAGAGGAUAUGCGGUGAUGGACAUGAGGAUCACCCAUGUUAGCGAUAGCAUCACGGUAGAAGGCUCUACGGCUGG [Soteed Omei mod 20] (puzzle: Same State 2) | – | – | – | 10.7 | 18.6 | 26.2 |
| GUUAUACAUGAGGAUCACCCAUGUCAAUGUAGUCGAGGAUAUGGGCAGCUAUGAGGCGUACUAGAAGGCGAUGAGU [JL-ss1-3.14 ViennaUCT mod] (puzzle: Same State 1) | – | – | – | – | 122 | – |
| GGAGCCGGUACUGAGGAUAUUCAUAUUAAAACAUGAGGAUCACCCAUGUAGGCCAGAAGGCCUUGGGAGAAGGCGGACCAGCUCG [Atgexeedri - 1] (Eterna round: R96, puzzle: Same State 2) | 27.5 | 302 | 417 | – | – | – |
| GGAGAACAUGAGGAUCACCCAUGUAAGCGUUAGCUAGGAUAUGCGGGAAGGAAGAGAGAAGCAGAAGGAGUCGGUA [JR_SS1_Sub032] (puzzle: Same State 1) | – | – | – | 34.9 | 39.4 | 67.8 |
| UGUCCAGCCUGUGCUGGUCUUUUGCAUGUACAUGAGGAUCACCCAUGUCGUGUACAUGCUUUUUGCUCGUCUUUAAA [Photon Torp-04] (puzzle: Sensor for hsa-mir-208a) | – | – | – | 181 | 25.4 | 317 |
| AGUCCACGCUGACGUGGACAAAAGCAUGUACAUGAGGAUCACCCAUGUCAUGUACAAGCUUUUUGCUCGUCUUAAAA [Mat - hsa-mir-208a - Mod of JL - D17] (puzzle: Sensor for hsa-mir-208a) | – | – | – | 543 | 14.7 | 1680 |
| GUAAAACAUGAGGAUCACCCAUGUCAACAAAGUCGAGGAUAUGGGCAUAUAUUAUAUGAACCAGAAGGCGAAUAUG [Mat - Same State 1 - Mod of UCT - D27] (puzzle: Same State 1) | – | – | – | 14.6 | 43.1 | 33.9 |
| ACGCUAGUCACAGGAUAUCCGAAAUAUAGCAAAGGAGAAGGGUGAUUAACAUGAGGAUCACCCAUGUAAAAGAAGAAAGAAGAU [Edargebi] (Eterna round: R96, puzzle: Same State NG 1) | 173 | 167 | 186 | – | – | – |
| CGGGUACAUGAGGAUCACCCAUGUUGGAGUAAUGCAGGAUAUGUGGGACGAGGUUAUAAAACAGAAGGGCAAGGAG [JR_SS!_Sub011] (puzzle: Same State 1) | – | – | – | 53.5 | 62.9 | 67.2 |
